Reference: paper PMC3432076

Molecular target: His-ΔPACC (Neurospora crassa) (UniProt Q7RVQ8)
Experiment: EMSA
Details: EMSA: 25 mM HEPES-KOH pH 7.9, 20 mM KCl, 10% glycerol, 1 mM DTT, 0.2 mM EDTA, 0.5 mM PMSF, 12.5 mM benzamidine, 5 µg/mL antipain and pepstatin A, 2 µg …

Sequence of His-ΔPACC (Neurospora crassa) (Q7RVQ8 1-213, stated change not applied): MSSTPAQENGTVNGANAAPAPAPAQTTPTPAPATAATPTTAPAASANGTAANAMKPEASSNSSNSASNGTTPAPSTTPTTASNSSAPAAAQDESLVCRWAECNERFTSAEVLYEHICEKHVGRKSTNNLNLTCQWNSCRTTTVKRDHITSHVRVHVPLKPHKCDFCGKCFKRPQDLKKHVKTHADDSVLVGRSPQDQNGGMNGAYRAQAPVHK

Sequence	binding
GACCCAACAGCCCAACTTGTGCTTGTCTTGTTCTTTTCCGGCCTCGCTAGAGGTACTATTTCTTCGCTTCTTGTCTGACTTTTTTCAATAGCCGTCTTTGGGCCAGAAATTACGTGAGATCGGGGCCGCATGGGAGTATTCGTTGC (double strand) [mpacC probe (CTTGGC to AAATTA)]	binds more weakly
GACCCAACAGCCCAACTTGTGCTTGTCTTGTTCTTTTCCGGCCTCGCTAGAGGTACTATTTCTTCGCTTCTTGTCTGACTTTTTTCAATAGCCGTCTTTGGGCCAGCTTGGCCGTGAGATCGGGGCCGCATGGGAGTATTCGTTGC (double strand) [pacC probe (146 bp gsn promoter)]	binds
